B1: Put2p mutant W193A, residues 23-575, His tag removed (enzyme, S. cerevisiae, UniProt P07275 23-575, looked up)
chain: KPPKHIRNEPVKPFRNIDLKDWDLLRASLMKFKSSSLEVPLVINGERIYDNNERALFPQTNPANHQQVLANVTQATEKDVMNAVKAAKDAKKDWYNLPFYDRSAIFLKAADLISTKYRYDMLAATMLGQGKNVYQAEIDCITELSDFFRYYVKYASDLYAQQPVESADGTANKAEYRPLEGFVYAVSPFNFTAIAANLIGAPALMGNTVVWKPSQTAALSNYLLMTVLEEAGLPKGVINFIPGDPVQVTDQVLADKDFGALHFTGSTNVFKSLYGKIQSGVVEGKYRDYPRIIGETGGKNFHLVHPSANISHAVLSTIRGTFEFQGQKCSAASRLYLPESKSEEFLSDMFGILQSQNVVPMNTSASPISGGNLRGFMGPVIHEQSFDKLVKVIEDAKKDPELEILYGGQYDKSQGWFVGPTVIKAKRPDHPYMSTEFFGPILTVYEYPDTEFNEICDIIDNTSQYALTGAIFAKDRKAIEYADEKLKFSAGNFYINDKCTGAVVSQQWFGGARMSGTDDKAGGPNILSRFVSIRNTKENFYELTDFKYPSNYE
B2: human Δ1-pyrroline-5-carboxylate dehydrogenase (HsP5CDH, ALDH4A1), residues 18-563, tag-free (enzyme, UniProt P30038 18-563, looked up)
chain: TGAGLRWKHTSSLKVANEPVLAFTQGSPERDALQKALKDLKGRMEAIPCVVGDEEVWTSDVQYQVSPFNHGHKVAKFCYADKSLLNKAIEAALAARKEWDLKPIADRAQIFLKAADMLSGPRRAEILAKTMVGQGKTVIQAEIDAAAELIDFFRFNAKYAVELEGQQPISVPPSTNSTVYRGLEGFVAAISPFNFTAIGGNLAGAPALMGNVVLWKPSDTAMLASYAVYRILREAGLPPNIIQFVPADGPLFGDTVTSSEHLCGINFTGSVPTFKHLWKQVAQNLDRFHTFPRLAGECGGKNFHFVHRSADVESVVSGTLRSAFEYGGQKCSACSRLYVPHSLWPQIKGRLLEEHSRIKVGDPAEDFGTFFSAVIDAKSFARIKKWLEHARSSPSLTILAGGKCDDSVGYFVEPCIVESKDPQEPIMKEEIFGPVLSVYVYPDDKYKETLQLVDSTTSYGLTGAVFSQDKDVVQEATKVLRNAAGNFYINDKSTGSIVGQQPFGGARASGTNDKPGGPHYILRWTSPQVIKETHKPLGDWSYAYMQ

Legend:
AUC = target: the molecule itself; assay: AUC
crystal structure = target: the molecule itself; assay: crystal structure

| Protein | stoichiometry N (AUC) | stoichiometry N (crystal structure) |
| --- | --- | --- |
| B1 | 2 | – |
| B2 | – | 2 |

— paper PMC3954644 (Biochemistry, 2014)
